The record followed here is doi:10.1101/2023.08.15.553389.

The target of this experiment is IgG1 Fc L234C/E382A ("less-crystallisable" Fc with L234C exchange). As to the kind of experiment: crystal structure.

B1: EndoS2 (38-843) D184A/E186L, inactive exchange variant (enzyme)
chain: EKTVQTGKTDQQVGAKLVQEIREGKRGPLYAGYFRTWHDRASTGIDGKQQHPENTMAEVPKEVDILFVFHDHTASDSPFWSELKDSYVHKLHQQGTALVQTIGVNELNGRTGLSKDYPDTPEGNKALAAAIVKAFVTDRGVDGLDIAILHEFTNKRTPEEDARALNVFKEIAQLIGKNGSDKSKLLIMDTTLSVENNPIFKGIAEDLDYLLRQYYGSQGGEAEVDTINSDWNQYQNYIDASQFMIGFSFFEESASKGNLWFDVNEYDPNNPEKGKDIEGTRAKKYAEWQPSTGGLKAGIFSYAIDRDGVAHVPSTYKNRTSTNLQRHEVDNISHTDYTVSRKLKTLMTEDKRYDVIDQKDIPDPALREQIIQQVGQYKGDLERYNKTLVLTGDKIQNLKGLEKLSKLQKLELRQLSNVKEITPELLPESMKKDAELVMVGMTGLEKLNLSGLNRQTLDGIDVNSITHLTSFDISHNSLDLSEKSEDRKLLMTLMEQVSNHQKITVKNTAFENQKPKGYYPQTYDTKEGHYDVDNAEHDILTDFVFGTVTKRNTFIGDEEAFAIYKEGAVDGRQYVSKDYTYEAFRKDYKGYKVHLTASNLGETVTSKVTATTDETYLVDVSDGEKVVHHMKLNIGSGAIMMENLAKGAKVIGTSGDFEQAKKIFDGEKSDRFFTWGQTNWIAFDLGEINLAKEWRLFNAETNTEIKTDSSLNVAKGRLQILKDTTIDLEKMDIKNRKEYLSNDENWTDVAQMDDAKAIFNSKLSNVLSRYWRFCVDGGASSYYPQYTELQILGQRLSNDVANTLKD
The molecule B1 registered a stoichiometry N (EndoS2 molecules per Fc homodimer) of 2.
